In article PMC3466257:

Target: immobilized fibrin (UniProt P02679)
Experiment: cell-free flow-based adhesion assay of protein-coated microspheres; 10-µm polystyrene microspheres coated with immunopurified CD44 or human IgG (2×10^6/ml in DPBS, 0.1% BSA) perfused for 5 min at 37°C over immobilized fibrin in a parallel plate flow chamber, 0.25 to 0.5 dyn/cm^2; interacting microspheres counted by phase-contrast videomicroscopy

reduction of binding relative to CD44s from untreated HL60 cells: 30%
Substance: CD44s immunopurified from PDGF-treated HL60 human myeloid cells (from UniProt P16070-12 21-361) (receptor)
